This is an account of results in US20040077045A1.

This assay has as its target T1, HLA-DR13 (DRB1*1301), purified (human).
T1 chain 1: not shown
T1 chain 2: not shown
The assay is described as follows: competition on purified HLA-DR (DRB1*1301) against biotinylated B1 21-36 (200 nM, pH 4.5); fluorescence assay.

One may read the IC50 as the concentration that inhibits the measured activity by half. Low values mean higher potency, high ones lower potency. The molecule TERVRLVTRHIYNREE (modifications not checked) [B1 21-36 (…), unlabeled reference peptide] yielded an IC50 of 390 nM.
